According to patent publication US20180155451A1 (published 2018):

T1: FcγRIIb extracellular domain with C-terminal His tag (human, UniProt P31994 43-217)
T1 construct: extracellular domain; also called 2b; FcgRIIb
T1 sequence (looked up): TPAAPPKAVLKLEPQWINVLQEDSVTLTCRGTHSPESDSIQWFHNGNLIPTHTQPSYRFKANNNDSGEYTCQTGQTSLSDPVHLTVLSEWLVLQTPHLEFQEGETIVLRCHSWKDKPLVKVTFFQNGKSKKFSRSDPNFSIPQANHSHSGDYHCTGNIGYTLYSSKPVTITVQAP

B1: GpH7-A5/GpH7-B3 variant A330_06M/GpL16-k0 (antibody, human IgG1, kappa)
heavy 1: not shown
heavy 2: not shown
light: DIVMTQSPLSLPVTPGEPASISCQASESLVHSNRNTYLHWYLQKPGQSPQLLIYKVSNRFSGVPDRFSGSGSGTDFTLKISRVEAEDVGVYYCSQNTHVPPTFGQGTKVEIERTVAAPSVFIFPPSDEQLKSGTASVVCLLNNFYPREAKVQWKVDNALQSGNSQESVTEQDSKDSTYSLSSTLTLSKADYEKHKVYACEVTHQGLSSPVTKSFNRGEC
notes: He Ab: alteration in one H chain only; also called He Ab
B2: GpH7-A5/GpH7-B3 variant A330_08L/GpL16-k0 (antibody, human IgG1, kappa)
heavy 1: not shown
heavy 2: not shown
light: B1 light
notes: as for B1
B3: GpH7-A5/GpH7-B3 variant I332_01G/GpL16-k0 (antibody, human IgG1, kappa)
heavy 1: not shown
heavy 2: not shown
light: B1 light
notes: as for B1
B4: GpH7-A5/GpH7-B3 variant E333_09D/GpL16-k0 (antibody, human IgG1, kappa)
heavy 1: not shown
heavy 2: not shown
light: B1 light
notes: as for B1
B5: GpH7-A5/GpH7-B3 variant I332_13S/GpL16-k0 (antibody, human IgG1, kappa)
heavy 1: not shown
heavy 2: not shown
light: B1 light
notes: as for B1
B6: GpH7-A5/GpH7-B3 variant I332_19Q/GpL16-k0 (antibody, human IgG1, kappa)
heavy 1: not shown
heavy 2: not shown
light: B1 light
notes: as for B1
B7: GpH7-A5/GpH7-B3 variant A330_07I/GpL16-k0 (antibody, human IgG1, kappa)
heavy 1: not shown
heavy 2: not shown
light: B1 light
notes: as for B1
B8: GpH7-A5/GpH7-B3 variant L234_04F/GpL16-k0 (antibody, human IgG1, kappa)
heavy 1: not shown
heavy 2: not shown
light: B1 light
notes: as for B1
B9: GpH7-A5/GpH7-B3 variant D270_10E/GpL16-k0 (antibody, human IgG1, kappa)
heavy 1: not shown
heavy 2: not shown
light: B1 light
notes: as for B1
B10: GpH7-A5/GpH7-B3 variant E333_13S/GpL16-k0 (antibody, human IgG1, kappa)
heavy 1: not shown
heavy 2: not shown
light: B1 light
notes: as for B1
B11: GpH7-A5/GpH7-B3 variant E333_03V/GpL16-k0 (antibody, human IgG1, kappa)
heavy 1: not shown
heavy 2: not shown
light: B1 light
notes: as for B1
B12: GpH7-A5/GpH7-B3 variant E333_20W/GpL16-k0 (antibody, human IgG1, kappa)
heavy 1: not shown
heavy 2: not shown
light: B1 light
notes: as for B1
B13: GpH7-A5/GpH7-B3 variant A330_15Y/GpL16-k0 (antibody, human IgG1, kappa)
heavy 1: not shown
heavy 2: not shown
light: B1 light
notes: as for B1
B14: GpH7-A5/GpH7-B3 variant E333_04F/GpL16-k0 (antibody, human IgG1, kappa)
heavy 1: not shown
heavy 2: not shown
light: B1 light
notes: as for B1
B15: GpH7-A5/GpH7-B3 variant A330_20W/GpL16-k0 (antibody, human IgG1, kappa)
heavy 1: not shown
heavy 2: not shown
light: B1 light
notes: as for B1
B16: GpH7-A5/GpH7-B3 variant A330_16H/GpL16-k0 (antibody, human IgG1, kappa)
heavy 1: not shown
heavy 2: not shown
light: B1 light
notes: as for B1
B17: GpH7-A5/GpH7-B3 variant Q295_10E/GpL16-k0 (antibody, human IgG1, kappa)
heavy 1: not shown
heavy 2: not shown
light: B1 light
notes: as for B1
B18: GpH7-A5/GpH7-B3 variant E333_02A/GpL16-k0 (antibody, human IgG1, kappa)
heavy 1: not shown
heavy 2: not shown
light: B1 light
notes: as for B1
B19: GpH7-A5/GpH7-B3 variant Q295_02A/GpL16-k0 (antibody, human IgG1, kappa)
heavy 1: not shown
heavy 2: not shown
light: B1 light
notes: as for B1
B20: GpH7-A5/GpH7-B3 variant E333_16H/GpL16-k0 (antibody, human IgG1, kappa)
heavy 1: not shown
heavy 2: not shown
light: B1 light
notes: as for B1

What follows are binders tested against T2, FcγRIIIa extracellular domain with C-terminal His tag (human, UniProt P08637 17-208) (assay: SPR, relative to GpH7-A5/GpH7-B3/GpL16-k0).
T2 construct: extracellular domain; also called 3a; FcgRIIIa
Protocol: (§1) The heterodimerized antibodies He Abs in which one of the H chains was introduced with an alteration were assayed for their binding activities to each activating FcγR and inhibitory FcγR according to the method described in Example 4. […] The activating FcγRs in FIGS. 26, 27, 28, and 29 are FcγRIa, FcγRIIa (R), FcγRIIa (H), and FcγRIIIa, respectively.
(§2) Analysis of interaction between objective antibody and the FcγR was carried out using Biacore T100 (GE Healthcare). HBS-EP+ (GE Healthcare) was used as the running buffer, and the measurement temperature was set to 25° C. Chips produced by immobilizing the antigen peptide by the amine coupling method to a Series S Sencor Chip CM5 (GE Healthcare), or alternatively, chips produced by allowing preliminarily biotinylated antigen peptides to interact with and immobilize onto a Series S Sensor Chip SA (certified) (GE Healthcare) were used. Antibodies of interest were captured onto an antigen peptide-immobilized chip, and allowed to interact to each FcγR diluted with running buffer. To regenerate and repeatedly use the chip, the antibodies captured on the chip were washed off by reacting 10 mM glycine-HCl, pH 1.5.

T2 sequence (P08637 17-208): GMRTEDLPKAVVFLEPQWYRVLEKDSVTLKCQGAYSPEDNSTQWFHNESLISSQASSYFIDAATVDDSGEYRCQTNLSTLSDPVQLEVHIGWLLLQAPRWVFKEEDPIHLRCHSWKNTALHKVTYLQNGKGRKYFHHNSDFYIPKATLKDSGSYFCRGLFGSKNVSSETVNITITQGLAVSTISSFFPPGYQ

He/Con_3a [control=100]	Binder
142	B1
124	B2
111	B3
112	B4
104	B5
110	B6
103	B7
118	B8
123	B9
103	B10
103	B11
101	B12
125	B13
101	B14
104	B15
104	B16
100	B17
105	B18
106	B19
103	B20

These binders were tested against T1, FcγRIIb extracellular domain with … (assay: SPR, relative to GpH7-A5/GpH7-B3/GpL16-k0).
Protocol: as §1, §2

He/Con_2b [control=100]	Binder
80.5	B1
70.5	B2
87.1	B3
94.3	B4
98.4	B5
94.3	B6
67.1	B7
99.8	B8
76.5	B9
81.8	B10
93.2	B11
89.5	B12
95	B13
94.6	B14
76.1	B15
87.6	B16
94.8	B17
83.8	B18
79.7	B19
83.3	B20
